According to patent publication US20260258115A1 (MAPP BIOPHARMACEUTICAL, published 2026):

B1: ADI-14588 (antibody, V domains shown)
VH: QVQLVQSGAEVKKPGASVKVSCKVSGDTLTELSIHWVRQAPGKGHEWMGYFDHEDGEIMYAQKFQGRVTMTGDTSTDTAYMELSSLRSEDTAVYYCATVAAAGQFDYWGQGTLVTVSS
VL: DIQLTQSPSSLSASVGDRVTITCRARQSISTYLNWYQQKPGKAPKLLIYAASSLQSGVPSRFSGSGSGTDFTLTISSLQPEDFATYYCQQSYSSPYTFGQGTKVDIK
B2: ADI-14402 (antibody, V domains shown)
VH: QVQLVQSGAEVKKPGASVKVSCKTSGYTFTNYGISWVRQAPGQGLEWMGWISAYNGNRNYAQKLQGRVTMTTDTSTSTAYMELRSLRSDDTAVYYCAREPPVIAAGDFSHWGQGTLVTVSS
VL: EIVLTQSPLSLPVTLGQPASISCRSSQSLVHSDANTYLSWFQQRPGQSPRRLIYKVSNRDSGVPDRFSGSGSGTDFTLKISRVEAEDVGVYYCMQGTHWPPDFGQGTRLEIK
notes: also called Ab 68
B3: ADI-14583 (antibody, V domains shown)
VH: QVQLVQSGAEVKEPGASVKVSCKASGYTFTNYGISWVRQAPGQGLEWLGWISAYNGNIHYAQKVQGRVTMTTDTSTSTGFMELRSLRSDDTAVYYCAREPPVIAAGDFQHWGQGTLVTVSS
VL: ETTLTQSPLSLPVTLGQPASISCRSSQSLVHSNGNTYLSWFQQRPGQSPRRLIYRVSNRDSGVPDRFSGSGSGTDFTLKISRVEAEDVGLYYCMQGTHWPPDFGQGTRLEIK
B4: ADI-14585 (antibody, V domains shown)
VH: QVQLVQSGAEVKKPGASVKVSCKASGYTFANYGIGWVRQAPGQGLEWMGWISAYNGKTNYAQKFQGRVTMTTDTSTSTAYMELRSLRSDDTAVYYCAREPPVIAAGDFPHWGQGTLVTVSS
VL: ETTLTQSPLSLPVTLGQPASISCRSSQSLEHSDLNTYLSWFQQRPGQSPRRLIYKVSNRDSGVPDRFSGSGSGTDFTLRISRVEAEDVGVYYCMQGTHWPPDFGQGTRLEIK
B5: ADI-14603 (antibody, V domains shown)
VH: QVQLVQSGAEVKKPGESLKISCKGSGYTFTNYWIGWVRQMPGKGLEWMGIIYPGDSDTRYSPSFQGQVTISADKSITTAYLQWRVLKASDTAMYYCATMRGSSSHFHHWGQGTLVTVSS
VL: DIQVTQSPSSLSASVGDRVTITCRAGQGIGNYLAWYQQKPGKVPKVLIYAASTLQSGVPSRFSGSGSGTEFTLTISSLQPEDVATYYCQKYNNAPYAFGQGTRLEIK
notes: also called Ab 131
B6: ADI-14403 (antibody, V domains shown)
VH: QVQLVESGGGLGKPGGSLRLSCAASGFTFSGYYMSWIRQAPGKGLEWVSDISSGSSFTNYADSVKGRFTISRDNAKNSLYLQMNSLKAEDTAVYYCARVPPDSYGSGSYSGDSWGQGTLVTVSS
VL: QSVVTQPPSVSGAPGQRVTISCTGSSSNIGAGYGVHWYQQLPGTAPKLLIYGNTNRPSGVPDRISGSKSGTSASLVITGLQAEDEADYYCQSYDSSLSGWVFGGGTKLTVL
notes: also called Ab 69
B7: ADI-14587 (antibody, V domains shown)
VH: EVQLLESGGGLVKPGGSLRLSCAASGFTLTSYSMNWVRQAPGKGLEWVSSISSSSSYIHYADSVKGRFTISRDNAKNSLYLQMNSLRAEDTAVYYCAGSSLYPPFFDYWGQGTLVTVSS
VL: QSVVTQPPSVSGAPGQRVTISCTGSSSNLGAGYDVHWYQQLPGTAPKLLIYGNNNRPSGVPDRFSGSKSGTSASLAITGLQAEDEADYYCQSYDSSLSSVVFGGGTKLTVL
B8: ADI-14586 (antibody, V domains shown)
VH: QVQLVQSGGGLVKPGGSLRLSCAASGFTFSDYYMSWIRQAPGKGLEWVSYISSSSSYTNYADSVKGRFTISRDNAKNSLYLQMNSLRAEDTAVYYCAKRTEYCSSTGCAYYFDYWGQGTLVTVSS
VL: QSVVTQPPSVSGAPGQRVTISCTGSSSNIGAGYDVHWYQQLPGTAPKLLIYGNSNRPSGVPDRFSGSKSGTSASLAITGLQAEDEADYYCQSYDSSLSGSVFGGGTKVTVL
B9: ADI-14581 (antibody, V domains shown)
VH: QVQLVQSGAEVKKPGSSVKVSCKASGGTFSSHAFSWVRQAPGQGLEWMGGIIPSLNTANYAQKFQGRVSITADESTGTAYMELSSLRSDDTAVYFCAREVFGYGYYFDYWGQGTLVTVSS
VL: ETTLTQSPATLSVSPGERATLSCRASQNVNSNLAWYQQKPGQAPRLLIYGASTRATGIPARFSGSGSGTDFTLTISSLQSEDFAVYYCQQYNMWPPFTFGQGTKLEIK
notes: also called Ab 110
B10: ADI-14424 (antibody, V domains shown)
VH: QVQLVQSGAEVKKPGESLKISCKGPDSSFSVYWIAWVRQMPGKGLEWMGVIYVGDSDTRYSPSFRGQVTISADKSMNTAYLQWSSLKASDTAMYFCARHIPPGPFDLWGQGTMVTVSS
VL: NFMLTQPHSVSASPGKTITISCTRSSGSIASNSVQWYQQRPGSAPTNVIYEDDQRPLGVPNRFSGSIDSSSNSASLTISGLKTEDEADYYCHSYHNSDQVFGGGTKLTVL
notes: also called Ab 90
B11: ADI-14582 (antibody, V domains shown)
VH: QVQLVQSGAEVKKPGESLKISCKGPDSSFSVYWIAWVRQMPGKGLEWMGVIYVGDSDTRYSPSFRGQVTISADKSINTAYLQWSSLKASDTAMYFCARHIPPGPFDLWGQGTTVTVSS
VL: NFMLTQPHSVSASPGKTITISCTRSSGSIASNSVQWYQQRPGSAPTNVIYEDNQRPLGVPNRFSGSIDSSSNSASLTISGLKTEDEADYYCQSYHSSDQVFGGGTKVTVL
B12: ADI-14580 (antibody, V domains shown)
VH: QVQLVQSGAEVKKPGSSVKVSCKASGGTFSSYTINWVRQAPGQGLEWMGRIIPVLGMASYVQNFQGRVSITADESTSTAYMELSSLTSEDTALYYCAKGAVAAANDVFDVWGQGTTVTVSS
VL: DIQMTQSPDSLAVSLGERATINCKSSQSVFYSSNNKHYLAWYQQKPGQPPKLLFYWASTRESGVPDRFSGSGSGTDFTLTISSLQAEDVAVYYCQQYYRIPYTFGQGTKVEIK
B13: ADI-14412 (antibody, V domains shown)
VH: QVQLVQSGAEVKKPGASVKVSCKASGYTFTRYGISWVRQAPGQGLEWMGWISDYNGNTKNAEKFQGRVTMTTDTYTNIAYMELRSLRSDDTAVYYCARDWWITVGGIIAPFDYWGQGTLVTVSS
VL: ETTLTQSPGTLSLSPGERATLSCRASQSVSSDYLAWFQQKPGQAPRLLIYGASSRATDIPDRFSGSGSGTDFTLTISRLESEDFAVYYCLHYAGARTFGQGTKVEIK
notes: also called Ab 78
B14: ADI-14428 (antibody, V domains shown)
VH: EVQLLESGGGLVKPGGSLRLSCAASGFTFSDHYMSWIRQAPGKGLEWVSYISSTSSFTNYADSLKGRFTISRDNAKNSLYLQMNSLRAEDTAVYYCARPYIVALGTRAFDIWGQGTTVTVSS
VL: SYVLTQPPSVSVAPGKTARITCGGNNIGSKTVHWYQQKPGQAPVLVSYYDSDRPSGIPERFSGSNSGNTATLTISRVEAGDEADYYCQVWDGSSEHYVFGTGTKVTVL
notes: also called Ab 94
B15: ADI-14601 (antibody, V domains shown)
VH: EVQLLESGGGLVQPGGSLRLSCAASGFTFSSYAMNWVRQAPGKGLEWVSTISGSGSSTYYADSVEGRFTISRDNSKNTLYLQMNSLRAEDTAIYYCAKEPRDMYIQQWLDSWGQGTLVTVSS
VL: GIRLTQSPSSVSASVGDRVIITCRASQGIRSWLAWYQQKPGKAPKLLIYAASRLQSGVPSRFSGSGSETDFTLTISSLQPEDFASYYCQQANSFPLTFGGGTKVEIK
B16: ADI-14591 (antibody, V domains shown)
VH: QVQLVQSGAEVKKPGESLRISCTGSGYTFTNYWISWVRQMPGKGLEWMGRIDPTDSYTNYSPSFQGHVTISADKSISTAYLQSSSLKASDTATYYCARHRRLVPAAMSRGYYGMDVWGQGTTVTVSS
VL: EIVMTQSPSSLSASVGDRATITCRASQSISSYLNWYQQKPGKAPKLLIYAASNLQSGAPSRFSGSGSGTDFTLTISSLQPEDFATYFCQQTYSTPYTFGQGTKVEIK
notes: also called Ab 120
B17: ADI-14363 (antibody, V domains shown)
VH: QVQLVESGGGLVKPGGSLRLSCAASGFTFSDYYMSWIRQAPGKGLEWVSYISGGGTYTKYADSVKGRFTISRDNAKNSVYLQMNSLRAEDTAVYYCARDVALVGWELRYGMDVWGQGTTVTVSS
VL: ETTLTQSPGTLSLSPGERATLSCRARENVNSSYLAWYQQKPGQAPRLLIYGASSRATGIPDRFSGSGSGTDFTLTISRLEPEDFAVYYCQQYAISPWTFGQGTKVEIK
notes: full-length IgG; also called Ab 31
B18: ADI-24841 (antibody, V domains shown)
VH: QVQLVQSGAEVKKPGASVKVSCKASGYTFTSYAMHWVRQAPGQRLEWMGWINAGNGNTKYSQKFQGRVTITRDTSASTAYMELSSLRSEDTAVYYCARDGFPTNYDFWSGYSDDAFDIWGQGTMVTVSS
VL: not shown
notes: full-length IgG
B19: ADI-14380 (antibody, V domains shown)
VH: QVQLVQSGAEVKKPGESLKISCKGSGYTFTSYWIGWVRQLPGKGLEWMGVIFPGDSDTRYSPSFQGQVTISADKSISTAYLQWSSLKAADTAMYYCARTRLGRGFYRFDSWGQGTLVTVSS
VL: QSVLTQPPSVSAAPGQKVTISCSGSSSNIGNNYVSWYQQLPGTAPRLLIYENNERPSGIPDRFSGSKSGTSATLGITGLQTGDEADYYCATWDSGLSAGYVFGTGTKLTVL
notes: full-length IgG; also called Ab 48
B20: ADI-24854 (antibody, V domains shown)
VH: EVQLVESGGGLVKPGGSLRLSCAASGFTFSSYSMNWVRQAPGKGLEWVSSISSSSSYIYYADSVKGRFTISRDNAKNSLYLQMNSLRAEDTAVYYCARDRRFGELFYFDYWGQGTLVTVSS
VL: QSVLTQPPSVSGAPGQRVTISCTGSSSNIGAGYDVHWYQQLPGTAPKLLIYGNSNRPSGVPDRFSGSKSGTSASLAITGLQAEDEADYYCQSYDSSLSGNWVFGGGTKLTVL
notes: full-length IgG
B21: ADI-25518 (antibody, V domains shown)
VH: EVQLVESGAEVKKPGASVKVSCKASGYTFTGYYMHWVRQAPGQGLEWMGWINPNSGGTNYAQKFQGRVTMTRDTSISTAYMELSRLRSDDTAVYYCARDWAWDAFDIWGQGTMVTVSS
VL: QSVLIQPASVSGSPGQSITISCTGTSSDVGGYNYVSWYQQHPGKAPKLMIYDVSNRPSGVSNRFSGSKSGNTASLTISGLQAEDEADYYCSSYTSSSTLVFGGGTQLTVL
notes: full-length IgG
B22: ADI-25491 (antibody, V domains shown)
VH: EVQLLESGPGLVKPSQTLSLTCTVSGGSISSGGYYWSWIRQHPGKGLEWIGYIYYSGSTYYNPSLKSRVTISVDTSKNQFSLKLSSVTAADTAVYYCAREVVPAAIRAGYYFDYWGQGTLVTVSS
VL: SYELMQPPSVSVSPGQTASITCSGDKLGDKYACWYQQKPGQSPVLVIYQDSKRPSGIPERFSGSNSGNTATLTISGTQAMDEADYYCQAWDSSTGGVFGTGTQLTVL
notes: full-length IgG
B23: ADI-22756 (antibody, V domains shown)
VH: EVQLLESGGGVVQPGRSLRLSCVASGFTFSTYGVHWVRQAPGKGLEWVAVISYDGANKDYADSVKGRFTISRDNSKNTLYLQMNSLRAEDTAVYYCAKMITRVLPGGFDRWGQGTLVTVSS
VL: EIVMTQSPGTLSLSPGERATLSCRASQSVSSAYLAWYQQKPGQAPRLLIYDASRRATGIPDRFSGSGSGTDFTLTISRLEPEDFAVYYCQQYGSSRFTFGQGTKVEIK
notes: full-length IgG
B24: ADI-24798 (antibody, V domains shown)
VH: EVQLLESGPGLVKPSETLSLTCTVSGGSISSYYWSWIRQPPGKGLEWIGYIYYSGSTNYNPSLKSRVTISVDTSKNQFSLKLSSVTAADTAVYYCARILGHCSGGSCYRIIDYWGQGTLVTVSS
VL: not shown
notes: full-length IgG

target: RSV prefusion F (preF), subtype B (respiratory syncytial virus, subtype B); assay: BLI, IgG

In order of rising Kd:
1. B2  0.416 nM
2. B4  0.449 nM
3. B16  0.554 nM
4. B6  0.699 nM
5. B7  0.833 nM
6. B1  1.48 nM
7. B3  1.59 nM
8. B11  1.81 nM
9. B10  1.9 nM
10. B15  1.96 nM
11. B9  2.88 nM
12. B12  4.54 nM
13. B8  6.7 nM
14. B13  13.4 nM
15. B14  14.1 nM
16. B5  30.5 nM

target: T1, RSV prefusion F (preF), subtype B (respiratory syncytial virus subtype B); assay: BLI, IgG
T1 construct: also called Prefusion subtype B

In order of falling Kd:
1. B23  55.8 nM
2. B21  39.5 nM
3. B20  30.3 nM
4. B18  26.6 nM
5. B22  21.9 nM
6. B19  10.8 nM
7. B17  5.35 nM
8. B24  5.27 nM
